Source: patent US12698483B2 (priority 2019, dated 2026)
“Also recorded” adds a separate entry of the source.

B1: TrGST-C02 (protein, listed as Triticum aestivum)
chain: MAGGDDLKLLGAWASPFVTRVKLALNFKGLSFEDVEEDLSNKSELLLSSNPVHKKVPVLVHNGKPICESVIIVQYIDEAFAGIGPALLPSDPYERAIARFWAAYVDDKLVAPWVQSLRAKTEEEKSEGLKQTFAAVETLEGALRECSKGEGYFGGETVGLVDISLGSLLSWLNATEVMSGTKIFDPVKTPLLAAWMERFSKLDAAKAALPEVDRVVEFAKKRQAQAAAAAAASETK
B2: TrGST-C12 (protein, listed as Triticum aestivum)
chain: MAGGDDLKLLGAWASPFVARVKLALSFKGLSFEDVEEDLSNKSELLLSSNPVHKKVPVLVHNGKPICESMIIVQYIDEAFLVGPSLLPSDPYKRAIARFWAAYIDDKLVTPWVQSLRAKTEEEKSEGVKQTFAAVETLEGALRECSKGEGYFGGETVGLVDISLGSLLSWLIATEVMSGTKIFDPVKTPLLAAWMGRFSELDAAKAALPEVDRVVEFAKKRQAQADAAAAASETK

Assays:
Assay type in all cases: biochemical
[1] = Enzymatic DON-GSH conjugation assay (LC-HRMS, Orbitrap); conditions: 100 ppm DON, 5 mM GSH, pH6, within 24 hours; for formation of the Michael adduct of DON (MH1): against nonenzymatic background; for formation of the epoxide adduct of DON (MH2, DON-13-GSH): result in words
[2] = Enzyme dependent formation of the GSH adduct with trichodermin; conditions: FIG. 14; pCA02 empty vector and no protein as controls
[3] = Enzyme dependent formation of the GSH adduct with roridin A; conditions: FIG. 17; pCA02 empty vector and no protein as controls
[4] = Enzyme dependent formation of the GSH adduct with T-2 toxin; conditions: FIG. 11; pCA02 empty vector and no protein as controls

| Molecule | formation of the Michael adduct of DON (MH1) [1] | formation of the epoxide adduct of DON (MH2, DON-13-GSH) [1] | formation of the GSH adduct with trichodermin (Trichodermin-GSH_MH) [2] | formation of the GSH adduct with roridin A (Roridin-GSH_MH) [3] | formation of the GSH adduct with T-2 toxin (T-2-GSH_MH) [4] |
| --- | --- | --- | --- | --- | --- |
| B1 | clearly enhance Michael adduct formation; also recorded: clearly catalyze | clearly catalyze the formation of the epoxide-adduct; also recorded: catalyzed | Enzyme dependent formation of the GSH adduct | Enzyme dependent formation of the GSH adduct | Enzyme dependent formation of the GSH adduct |
| B2 | clearly enhance Michael adduct formation; also recorded: clearly catalyze | clearly catalyze the formation of the epoxide-adduct; also recorded: catalyzed | Enzyme dependent formation of the GSH adduct | Enzyme dependent formation of the GSH adduct | Enzyme dependent formation of the GSH adduct |
